Experimental data published in patent US20150362496A1 (ONCOMATRYX BIOPHARMA S L, published 2015).

B1: 1E8.33 monoclonal antibody (antibody, V domains shown)
VH: EVQLQESGPELVKTGSSVKISCKASGYSFTGYYMHWVKQSQGKSLEWIGYINCYNGATSYNRNFKGKATFTVDTSSSTAYMQFNSLTSGDSAVYYCAIWDYEFHVMDYWGQRTSLTVSS
VL: ENVLTQSPAIMSASLGEKVTMSCRASSSVNYMYWYQQKSDASPKLWIYYTSNLAPGVPARFSGSGSGNSYSLTISSMEGEDADTYYCQQFTSSPWTFGGGTKLEIK
notes: they are variable domains only; also called 1E8.33 mAb; 1E8.33 clone

How the values were obtained:
[1] = target: T1, proCOL5A1 expressed in SAOS-2 osteosarcoma cells (UniProt P20908 38-1838, limits assumed); experiment: immunocytochemistry on SAOS-2 cells
T1 construct: Endogenous protein in cells, stained by immunocytochemistry

[2] = target: B1; experiment: peptide blocking of 1E8.33 in Western blot of A204 cells
Method: FIG. 8: 1E8.33 mAb blocking test for locating the epitope, performed by means of Western blot of A204 cells. The detection was performed with a mixture of the antibody and different peptides. Lane 1: negative control without antibody. Lane 2: FQEYNYG. Lane 3: […]. Lane 4: […]. Lane 5: […]. Lane 6: […]. Lane 7: positive control with the unblocked 1E8.33 mAb. Complete blocking was observed only in lane 6.

T1 sequence (P20908 38-1838 limits assumed): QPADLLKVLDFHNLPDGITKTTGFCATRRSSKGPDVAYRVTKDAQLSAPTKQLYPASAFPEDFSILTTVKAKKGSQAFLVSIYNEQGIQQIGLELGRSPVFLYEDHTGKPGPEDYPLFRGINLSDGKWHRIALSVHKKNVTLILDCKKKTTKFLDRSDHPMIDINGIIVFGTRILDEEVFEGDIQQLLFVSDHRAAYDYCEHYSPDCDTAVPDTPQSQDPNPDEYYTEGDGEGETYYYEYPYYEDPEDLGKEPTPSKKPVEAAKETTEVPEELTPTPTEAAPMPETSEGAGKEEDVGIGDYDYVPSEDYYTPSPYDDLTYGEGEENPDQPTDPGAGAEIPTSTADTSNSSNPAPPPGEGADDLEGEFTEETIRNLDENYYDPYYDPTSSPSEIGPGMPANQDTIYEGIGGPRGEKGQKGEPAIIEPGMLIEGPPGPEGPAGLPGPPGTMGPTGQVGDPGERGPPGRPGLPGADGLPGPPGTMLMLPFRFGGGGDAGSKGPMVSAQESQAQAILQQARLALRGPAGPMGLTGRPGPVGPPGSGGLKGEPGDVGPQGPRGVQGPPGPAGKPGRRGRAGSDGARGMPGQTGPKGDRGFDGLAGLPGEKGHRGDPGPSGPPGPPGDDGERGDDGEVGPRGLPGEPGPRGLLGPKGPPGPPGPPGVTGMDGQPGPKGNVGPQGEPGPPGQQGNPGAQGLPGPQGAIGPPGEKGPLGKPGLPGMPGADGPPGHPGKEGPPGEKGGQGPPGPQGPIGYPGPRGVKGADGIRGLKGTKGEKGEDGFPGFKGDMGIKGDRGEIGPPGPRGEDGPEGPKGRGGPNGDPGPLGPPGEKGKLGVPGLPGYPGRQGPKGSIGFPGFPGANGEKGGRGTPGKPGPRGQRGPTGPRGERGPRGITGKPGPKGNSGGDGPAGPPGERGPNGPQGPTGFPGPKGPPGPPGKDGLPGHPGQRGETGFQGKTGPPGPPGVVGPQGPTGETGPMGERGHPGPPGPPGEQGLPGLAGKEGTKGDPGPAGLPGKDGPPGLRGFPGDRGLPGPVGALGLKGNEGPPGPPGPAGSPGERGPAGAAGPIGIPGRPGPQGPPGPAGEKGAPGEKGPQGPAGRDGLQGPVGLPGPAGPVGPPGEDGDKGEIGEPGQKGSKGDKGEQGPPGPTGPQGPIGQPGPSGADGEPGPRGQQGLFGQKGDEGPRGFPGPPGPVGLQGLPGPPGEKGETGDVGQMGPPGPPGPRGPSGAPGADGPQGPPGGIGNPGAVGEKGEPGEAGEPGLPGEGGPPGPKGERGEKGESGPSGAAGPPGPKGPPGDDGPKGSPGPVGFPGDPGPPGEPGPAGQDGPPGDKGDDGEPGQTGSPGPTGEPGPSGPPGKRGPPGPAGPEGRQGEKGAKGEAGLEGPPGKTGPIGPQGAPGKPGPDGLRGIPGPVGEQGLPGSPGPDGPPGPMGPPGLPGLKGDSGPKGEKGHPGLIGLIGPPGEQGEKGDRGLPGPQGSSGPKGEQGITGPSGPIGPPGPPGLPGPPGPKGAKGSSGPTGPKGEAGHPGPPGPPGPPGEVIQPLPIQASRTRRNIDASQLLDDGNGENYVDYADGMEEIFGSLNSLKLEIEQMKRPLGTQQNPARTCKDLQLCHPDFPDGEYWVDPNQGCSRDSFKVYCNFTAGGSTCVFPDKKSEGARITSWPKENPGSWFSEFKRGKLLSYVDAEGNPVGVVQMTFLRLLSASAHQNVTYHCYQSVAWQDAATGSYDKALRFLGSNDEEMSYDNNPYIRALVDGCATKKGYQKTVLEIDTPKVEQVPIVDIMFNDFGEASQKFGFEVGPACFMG

| binding result [1] | binding result [2] | Binder |
| --- | --- | --- |
| no binding | – | B1 |
| – | binds | YNYGTMESYQTEAPR (15-residue peptide of the proCOL11A1 VAR region; also called the mentioned peptide) [peptide YNYGTMESYQTEAPR] |
